# Source: article PMC5241339 (2016)
# B1: commercially available native human S100A12 protein (nS100A12) (natural protein)
# chain: MTKLEEHLEGIVNIFHQYSVRKGHFDTLSKGELKQLLTKELANTIKNIKDKAVIDEIFQGLDANQDEQVDFQEFISLVAIALKAAHYHTHKE
# B2: recombinant S100A12 (rS100A12) (natural protein)
# chain: GPLGSMTKLEEHLEGIVNIFHQYSVRKGHFDTLSKGELKQLLTKELANTIKNIKDKAVIDEIFQGLDANQDEQVDFQEFISLVAIALKAAHYHTHKE
# B3: fluorescein-labeled rS100A12 (natural protein)
# chain: B2 chain
# modifications: fluorescein (NHS-fluorescein, 15 times molar excess; labeled residues not stated)
# Columns and labels:
# [1] = target: T1, CD36 (His-tagged recombinant human protein, Sino Biological, Life technologies, 70-80 kDa) (human, UniProt P16671 30-439); assay: SPR; native 1; kd2 of two-state fit
# T1 sequence (P16671 30-439): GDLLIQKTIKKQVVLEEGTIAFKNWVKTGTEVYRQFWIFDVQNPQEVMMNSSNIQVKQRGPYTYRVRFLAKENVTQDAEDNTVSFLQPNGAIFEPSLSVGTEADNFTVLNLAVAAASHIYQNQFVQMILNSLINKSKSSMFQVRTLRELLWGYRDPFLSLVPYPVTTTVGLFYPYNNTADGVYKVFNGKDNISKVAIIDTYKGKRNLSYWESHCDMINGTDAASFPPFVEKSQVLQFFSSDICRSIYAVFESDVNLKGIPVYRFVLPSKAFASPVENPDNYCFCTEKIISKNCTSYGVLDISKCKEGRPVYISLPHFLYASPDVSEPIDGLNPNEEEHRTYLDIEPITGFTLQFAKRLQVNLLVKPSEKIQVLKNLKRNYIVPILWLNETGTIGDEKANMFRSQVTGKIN
# [2] = target: T1, CD36 (His-tagged recombinant human …); assay: SPR; native 2; kd1 of two-state fit
# [3] = target: T1, CD36 (His-tagged recombinant human …); assay: SPR; native 2; kd2 of two-state fit
# [4] = target: T1, CD36 (His-tagged recombinant human …); assay: SPR; native 1; kd1 of two-state fit
# [5] = target: T1, CD36 (His-tagged recombinant human …); assay: SPR; recombinant 1; kd2 of two-state fit
# [6] = target: T1, CD36 (His-tagged recombinant human …); assay: SPR; recombinant 2; kd2 of two-state fit
# [7] = target: T1, CD36 (His-tagged recombinant human …); assay: SPR; recombinant 2; kd1 of two-state fit
# [8] = target: T1, CD36 (His-tagged recombinant human …); assay: SPR; recombinant 1; kd1 of two-state fit
# [9] = target: T1, CD36 (His-tagged recombinant human …); assay: SPR; kd1 of two-state fit
# [10] = target: T1, CD36 (His-tagged recombinant human …); assay: SPR; kd2 of two-state fit
binder,measurement,setting,value
B1,koff,[1],0.00051 s⁻¹
same,koff,[2],0.0092 s⁻¹
same,koff,[3],0.00056 s⁻¹
same,koff,[4],0.0083 s⁻¹
B2,koff,[5],0.00037 s⁻¹
same,koff,[6],0.00068 s⁻¹
same,koff,[7],0.019 s⁻¹
same,koff,[8],0.0066 s⁻¹
B3,koff,[9],0.014 s⁻¹
same,koff,[10],0.001 s⁻¹
